Source: article PMC12241602

Key:
[1] = target: His6-MadB (class I lantibiotic dehydratase MadB) (Clostridium sp. Maddingley); test: SEC-MALS; 100 uL of 20 uM MadB on Superdex 200 10/300 Increase, 50 mM HEPES pH 8.0, 200 mM NaCl, 0.5 mL/min
[2] = target: His6-MadB (class I lantibiotic dehydratase MadB) (Clostridium sp. Maddingley); test: cryo-EM structure; single particle cryo-EM of purified apo MadB and of MadB with MadL3, C2 symmetry imposed
[3] = target: His6-MadB (class I lantibiotic dehydratase MadB) (Clostridium sp. Maddingley); test: nanoDSF; 2 uM His6-MadB with or without 10 uM ligand peptide, 10 min at room temperature, 50 mM HEPES, 500 mM NaCl, pH 7.5, ramp 1 °C/min from 25 to 95 °C, intrinsic fluorescence 330/350 nm

| stoichiometry N [1] | stoichiometry N [2] | Substance | Tm shift [3] [°C] |
| --- | --- | --- | --- |
| 2 | 2 | His6-MadB (class I lantibiotic dehydratase MadB) (enzyme) | – |
| – | – | MadL1 (isolated leader peptide of maddinglicin A) | 1.8 |
